Consider 21 sequences from a protein production outcome set (Wang et al. 2014).
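Also: failed if final PepcDB status was selected cloned or expressed and not failed if soluble or beyond.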

The series is described as follows: label from the status in PepcDB records.
Take “MIVCKNRIGTMKRLGRISLRVLLLAGVLLSLLLMAMTLLYPPVEKGGLFFMLAIEVALLFFLGFLYNKVVLPIRAVGDGMDMLRSQDYATTLAPVGQPDADRVVELYNALMHSLKKERLRLEERDNFLSLVMDVSPVGFVVLDFDMRVVSVNPAARRLLDLPDDYIPIERPLEEVCAKIPFGPDELGEGESRTWRLPTAEVRRITRMRFFDRSFSRLFFSIETLTEELHSAEKEAYEKLIRLIAHEVNNSTAGIIGVLNAVGDAFDDTPHTPEGEVSEAIALCRDRCMAMSRFITRFAEVVKLPDPTLSSVDLVPLCERCILLMQPLAVETGVKMKMCKEQDSCLVRCDAEQIEQVVINLLRNAIESFAQQNDLAVSATKTVLLCLDRHNLLVEDNGQPISDDVATRLFTPFFSTKPNGQGIGLVVIREVLTRHGWSFSLTTDADGRTRFRMAWP”: the protein production result is reported as “failed”.
For the sequence “MTLTSSQKPFRLLVGDREVQESDLAALLQKHQLLPELVKRMRFAQVIEGIEVQPDVLEQECQAWCKQNGIAPQQLPQLLAQQQISLEQWMSSVENRLRLRLFQEREFSHRAENRFLKRKSQLDLVTYSLLRHSDGHLIQELYQQLLHGEATFEDLATQFSQGHEAKTAGKLGPVPLSQPHPALAEVLRTAQPGQILPPRNLESYWLIIRLDQLQPVAFNETIRRQMLQELFDEWLGAEVQQTLNTL”, the protein production result is reported as “failed”.
Regarding “MPVQENSFKSYSEVITGSIIYGTIGVFLDRVQDMSVGSVLFCRLLFGVFMIFFYLLLSGSLEQLRLRRNRKYLLLLGFLNAVTGICYLSAIRHSGISTAVLLLYTAPVYVNLLAPAILGEKGSSKSFLPLILSVLGVLLITRPGEILFNINAGSEFIKGLLYGILSGISFGTTIILIRYLRHDYTGISQTFWLTGVSLLFMLPSALLTPASVFLKNFDTLFLFGITITFAAILYLRGISGIKAQTGSILALLEPVSGIFFDTVVLRSPFYISTLLGCVLILTAAYLVSRNGTGDQSLKTDNQPVL”, the protein production result is on record as “failed”.
Take “MEEGDFFNCCFSEISSGMTMNKKKMKKSNNQKRFSEEQIKSLELIFESETRLEPRKKVQVARELGLQPRQVAIWFQNKRARWKTKQLEKEYNTLRANYNNLASQFEIMKKEKQSLVSELQRLNEEMQRPKEEKHHECCGDQGLALSSSTESHNGKSEPEGRLDQGSVLCNDGDYNNNIKTEYFGFEEETDHELMNIVEKADDSCLTSSENWGGFNSDSLLDQSSSNYPNWWEFWS”: the protein production result is listed as “failed”.
Consider “MSRGPLDPRAPLYKAVQIARRRAAEEGDSSWRVVAQAVEELARRVERLYELASRHGLSKPFWLSPRVLEVLRSVEDGDKGGAIERARSLSESLIPAGLAGEYSLATGTAARVLASIIFLASAAYIGVEGIQAPSTPAAVTTLALASFALAALLAASTHYSLYLLAVSTGASLAIATAYRPVVDSYSILMALYSAVLGFAAAAYSSYTRRKFYRMLRMLERGM”, for which the protein production entry was “failed”.
As to “MNFVELAKKRYSCRNYQDRKVEKEKLEKVLDVARIAPTGGNRQPQRLIVIQEKEGINKLSKAANIYDAPLAILVCGDKDKVWTRPFDGKQLTDIDTSIVTDHMMLQATELGLASVWVCYFNPDIIREEFSLPDNLEPINILLMGYESKIPESPERHEKTRVPLSEIVSYETL”, the protein production entry is listed as “failed”.
In the case of “MISAGDFKNGVTFELDGQIFQVIEFQHVKPGKGAAFVRTKLKNIVTGATIEKTFNPTDKMPKAHIERKDMQYLYNDGDLYYFMDTETFEQLPLGKDKIGDALKFVKENEIVKVLSHKGNVFGIEPPNFVELEVTDTEPGFKGDTATGATKPAIVETGASIKVPLFVNKGDIIRIDTRTGEYMERV”, the protein production entry is recorded as “not failed”.
In the case of “MICYKCGQDAGWNDKCPVCGADLSLFKRAIRISNSYYNDGLQKAQVRNLSGAIISLRQSLKFYKYNIQARNLLGLIYYEMGEMVDALSEWVISANYQPDDNLAKKYIDQIHNNRNQLETINQTIKKYNQALTYCKQDSKDLAVIQLRKVLSLNPKLVKGHQLLALLYLEEGHLDKAKKALRDAGKIDTDNTTTLRYLKEVNRRLKEKGTERKKKNDDLISYQSGNETIIMPKRFRESSMWANILYIIIGLVVGVAVTCFLVVPGIKSQAKTDAKKQLLSANDTISTNGQTISGLNDQIDKLKKELEDEKKKNDGVSDQISTYEALLNAYVYYTTNDVIKAGEALENINTSYLSDSAKQTYDTLNGSIADSYKEALYSQAYSSYSSGDYQSAIPTFQKLVGMDEAYRDGSAAYYLAQSFRKSGDLASAKPYYQYVVDNYAGTEKARTSKNYLAQEQQ”, the protein production result is recorded as “failed”.
As for “MIPMFTVTLEDSGTLWKSLHSSSESEMTTLPPLPMTRPKLTALARQKLPCSSRKIPRSQLIKEKDDIDHYLEVNFKGLSKEEVAAYRNSYKKNICVDMLRDGYHKSFTELFALMERWDALREAARVRSLFWLQKPLEEQPDKLDYLYHYLTRAEDAERKESFEDVHNNLYALACYFNNSEDKWVRNHFYERCFKIAQLIKIDCGKKEAEAHMHMGLLYEEDGQLLEAAEHYEAFHQLTQGRIWKDETGRSLNLLACESLLRTYRFLSDKMLENKEYKQAIKILIKASEIAKEGSDKKMEAEASYYLGLAHLAAEEYETALTVLDTYCKISTDLDDDLSLGRGYEAIAKVLQSQGEMTEAIKYLKKFVKIARNNFQSLDLVRASTMLGDIYNEKGYYNKASECFQQAFDTTVELMSMPLMDETKVHYGIAKAHQMMLTVNNYIESADLTSLNYLLSWKESRGNIEPDPVTEEFRGSTVEAVSQNSERLEELSRFPGDQKNET”, the protein production entry is on record as “failed”.
Regarding “QKIEKQYDADLEQILIQWITTQCRKDVGRPQPGRENFQNWLKDGTVLCELINALYPEGQAPVKKIQASTMAFKQMEQISQFLQAAERYGINTTDIFQTVDLWEGKNMACVQRTLMNLGGLAVARDDGLFSGDPNWFPKKSKE”, the protein production entry is recorded as “not failed”.
With “MSTVEKIQTFIILFAVTCGIVLGQFHLIHMYSEQFIVPFLFFMLYGLFLSIPLKEIKNGFRNLKFAGTSLTINFLWTPLLAWGLGALFLSDHPALWVGFIMLMVTPCTDWYLIFTEIAKGNVALSTAILPVNLILQVLLLPIYLFLFAGVMKTVAVSVLVESIVIVIVLPFLLAHATKFIMNKLKKAETLENKLIPFFSSAQIVFLSLAIVAMFASQGKYLLQNMNVVLLLLIPVLLFFIINFVLGQFIGRVMRLSYKDTVSLNLTTLARNSPVALAIAVTAFPNEPLIALALVIGPLIELPVLACVSQVLLLIKKKKQYT” the entry was “failed”.
For “MVKVSIIIPIYNVENYLDKCLDTAVNQTLGCIEIIGIDDGSTDKSRDILNKYAKKYSFIKIINKENGGLSSARNTGIINAKGEYIYFLDSDDYIEYDSMKICYEIATKNKLDIVSFDAESFVDGEGFTKKLKKYDRKDILDGNIKMGCEYFCELIKNKCYTASACLNFYRREFLIDNNLFFYDGILHEDELYTVKAYTLANKVRYIPYKLYFRRLRSNSITTQSISEKHLYGRLIAARESYRHYLGYKDVFDNDTNTCLLNHISNMYYFMLKDIYENKRIYNKRYIIEDKIINDIKSKKDIKSFKLDLQYRFPLIIYTIKKYLKKD”, the protein production entry was “failed”.
With “METNRPSPDALLVNLQEEADSSVGKLKIYFGFAAGVGKTYAMLSDAKDQLAAGVDVVAGYIEPHAREETLRMLEGIPIIPPKAINHKNIALKEFDLDEALKRKPELILVDELAHTNASGVRNKKRFQDVEELLQAGIDVYTTVNVQHIESLNDIVEGITKVAVRETIPDYVFDEADRVKLIDIEPDELLKRLEQGKIYQPARAKTAMQNFFTRENLKLLREIAMRKAADRI” the entry was “not failed”; with “MAREFKRSDRVAQEIQKEIAVILQREVKDPRIGMVTVSDVEVSSDLSYAKIFVTFLFDHDEMAIEQGMKGLEKASPYIRSLLGKAMRLRIVPEIRFIYDQSLVEGMRMSNLVTNVVREDEKKHVEESN”, “not failed”.
For “DNYRTTGIATIEVFLPPRLKKDRKNLLETRLHITGRELRSKIAETFGLQENYIKIVINKKQLQLGKTLEEQGVAHNVKAMVLELKQS”, the protein production entry is “not failed”.
On to “MIPTISDVSTVEEWRSVAKDIVQRDGDVNWRATIVDWPGLGYSARPKMDYDTDVMEKFVVDFMNSPESPMSQSGNDDLVIIGGGHAATLALRATQRGLLKPSAIAAVAPTWAGPLPIVFGRDSSMVSRYGMLRGTLRAPGVGWMMYNMLVSNEKSIESQYKSHVYADQTNVTDAIIQSRYELTKQKGSRYVPAAFLTGLLDPVSSREEFLQLFADLEGKLPVMVMSTKGAPKRSKAEMEALRGAKGVSKFVEVEGALLPQEEYPSLVAQELYNFLQETFAKC”, for which the protein production result is “failed”.
With “SKLNERSVAHYALSDSPADHMGFLRTWGGPGTPPTPSGTGRRCWFVLKGNLLFSFESREGRAPLSLVVLEGCTVELAEAPVPEEFAFAICFDAPGVRPHLLAAEGPAAQEAWVKVLSRASFGYMRLVVRELESQLQDARQSLALQRRSSWKSVASRCKPQAPNHRAAGLENGHCLSKDSSPVGLVEEAGSRSAGWGLAEWELQGPASLLLGKGQSPVSPETSCFSTLHDWYGQEIVELRQCWQKRAQGSHSKCEEQDRP”, the protein production entry was “not failed”.
The result for “DSVDLCIMEILKDILDLFHGGRVYIFEYDEYYRYQDCTYEVVAEGVLPEIDSLQRIPTDSLPWWRQQTLSGKPVILDSLDQLPKHAKAEYAILSRQNIKSLMITPLIAGEHVWGYMGIDLVKNYRNWNNEDFQWLSSLANIISICIELRKAKDEAVRERSFLRNLFRFMPMGYIRMTMVRDAAGLP” reads “failed”; that for “MIENTIYKEFIDKISELSDGIYPIITDLDNDLSYVPDKTADFFGFEAGEHTCFFEQLSSCVNDVDLPEYKREIRYRLNGEKPDDIFYVRMGKHTKEYMMGFYSDIFTGDDGHRYHVLVLRNENTLPDIDPYTYLYGQSKFERDINGYIMENRSVAIIEVEIGHIDEFNILYGSNFNTAIQRELALKFIYMMDGSTATYYMNNCKFVFVVKEADRALAESFYQKIADTIKSMYFFKCFKFEFDIYAACLILKDYDGDTSTVISKVEYTLDRAKELHSSDLLFFNDMVRFNGSSHIDIMKIIHQSVINSCDGFFVEFQPIVKACNGEIMGAEALVRWKKEPFGTVPPGLFIDWLEDTPAMYELGNYIMRTAISAASEFAKIKPGFFINVNASSEQLEKENFVKDTLAILKEYDFPPSQLWIEITERCRDLPISMIKKTVTAFREAGIHITMDDYGTGSSSSQMMLELPVEGIKIDMFFVKDILEEKKKQALVIGMINFANAADLKICIEGIENDNLESYLRQFDVTWFQGYHYSRSICQDELMKLLIKP”, “failed”.
The result for “IESASDMIAAFGKDQRFITFNEAYQREFKRLFDKSISINMSLEEAFNNAPENKKKLVQSWKESLQRDEETKNIEVNTEQEKTIYEMTSKLIQNGDNEIKGVVHSVRNIT” reads “failed”.
The result for “MCAEIPAMGPDLAIARAAAARWRKRAAEREQTRKTLDHQPAGHFTPVDSVDRLAKRAGRLQQWAAAIRALPPAAILGLPAAPPPTGGAADTREIDMVAPALSLRALAAERIIGETSDLLSVEFLEIGVAAARAVGLITTRGAPNGTGFLVAPDVVLTNNHVLPDVRTARASALEMDFETNRHGPRKEVQSFELDPDGFFLTDAPLDFTLVRVRPTSDGGQALSDYGFLPLIAAEGKIAVGEPLNIIQHPGGRVKQAALRNNRLLDLPPSNEADALNPDAVFHYETDTEKGSSGSPVFNDQWEVVALHHTGVPKTDASGAMIDADGRVVPDSQPERIVWIGNEGIRISRLYQYVFTFTFADPAMASVRDALIALWTDAGRPGWARTAAEAETIVHPPAALADPPPAAPAIIPLAEERGAAIAPDPADPAYARRPGFRSDFLGLPTPLPRLVDDSRGPLATFGEGVSELRYHHYSVLMNARRRLAYVAAVNIDHRAPFDVQRGTDRWFFDPRLPKRLQAGGDYYAANPLDRGHLVRRDDAAWGYTQAEAQLANDDTFHWTNCSPQHEVFNQSAKASGKGLLLWGNLENAVVDLAKATNGRLCVYNGPLFTEDDRPYRQDFFVPGAFWKLIALIDGQSRPRALAFRLSQAAQIADLPAEAFAPAELAAFTPVQIPVATLGALTGLDFGALAQWDPLAAGSDGVSKETLSPPRSIILTREADIVF” reads “failed”.
